# Reference: PMC11882521, “Cofactor engineering for improved production of 2,4-dihydroxybutyric acid via the synthetic homoserine pathway” (Frontiers in Bioengineering and Biotechnology, 2025)
# Columns and labels:
# [1] = molecular target: T1, Ec.Mdh^5Q D34G (OHB reductase, engineered E. coli malate dehydrogenase) (Escherichia coli, UniProt P61889, I12V/D34G/R81A/M85Q/D86S/G179D); test: specific activity of purified enzyme at […] OHB and […] NADH; assay type: biochemical
# T1 construct: N-terminally 6x-His-tagged
# [2] = molecular target: T1, Ec.Mdh^5Q D34G (OHB reductase, engineered E. coli malate dehydrogenase); test: specific activity of purified enzyme at […] OHB and […] NADPH; assay type: biochemical
# O=C(O)C(=O)CCO = test system: T2, O=C(O)C(=O)CCO; test: purified protein; assay type: biochemical, Escherichia coli
# T2 construct: N-terminally 6x-His-tagged
# [3] = test system: T3, NC(=O)C1=CN([C@@H]2O[C@H](COP(=O)(O)OP(=O)(O)OC[C@H]3O[C@@H](n4cnc5c(N)ncnc54)[C@H](O)[C@@H]3O)[C@@H](O)[C@H]2O)C=CC1; test: purified protein; assay type: biochemical, Escherichia coli; conditions: co-enzyme binding site, varied: cofactor
# T3 construct: N-terminally 6x-His-tagged
# [4] = test system: T4, NC(=O)C1=CN([C@@H]2O[C@H](COP(=O)(O)OP(=O)(O)OC[C@H]3O[C@@H](n4cnc5c(N)ncnc54)[C@H](OP(=O)(O)O)[C@@H]3O)[C@@H](O)[C@H]2O)C=CC1; test: purified protein; assay type: biochemical, Escherichia coli; conditions: varied: cofactor
# T4 construct: N-terminally 6x-His-tagged
# [5] = Asp34 confers cofactor specificity
# [6] = co-enzyme binding site, Asp34 disfavours the […]'-phosphate group
# [7] = NADPH uncompetitive substrate inhibition (Ki =[…])
# [8] = […]'-phosphate group near positions […] and […] (selectivity control loop, cofactor binding motif of the Rossmann fold)
# T1 sequence (P61889 whole entry I12V/D34G/R81A/M85Q/D86S/G179D): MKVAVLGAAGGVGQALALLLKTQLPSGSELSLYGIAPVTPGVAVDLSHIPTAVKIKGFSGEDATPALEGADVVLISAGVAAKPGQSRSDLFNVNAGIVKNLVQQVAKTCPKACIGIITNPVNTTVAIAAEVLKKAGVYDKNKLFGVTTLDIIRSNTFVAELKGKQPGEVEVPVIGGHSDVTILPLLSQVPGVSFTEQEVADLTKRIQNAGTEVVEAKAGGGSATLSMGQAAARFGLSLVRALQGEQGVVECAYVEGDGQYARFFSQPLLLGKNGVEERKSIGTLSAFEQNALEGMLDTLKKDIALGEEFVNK
molecule,measurement,setting,value
NC(=O)C1=CN([C@@H]2O[C@H](COP(=O)(O)OP(=O)(O)OC[C@H]3O[C@@H](n4cnc5c(N)ncnc54)[C@H](O)[C@@H]3O)[C@@H](O)[C@H]2O)C=CC1 [NADH],specific activity of purified enzyme at 2 mM OHB and 0.25 mM NADH,[1],23 ± 2 U mg^−1 (specific activity)
NC(=O)C1=CN([C@@H]2O[C@H](COP(=O)(O)OP(=O)(O)OC[C@H]3O[C@@H](n4cnc5c(N)ncnc54)[C@H](OP(=O)(O)O)[C@@H]3O)[C@@H](O)[C@H]2O)C=CC1 [NADPH],specific activity of purified enzyme at 2 mM OHB and 0.25 mM NADPH,[2],35 ± 3 U mg^−1 (specific activity)
"Ec.Mdh^5Q (OHB reductase, engineered E. coli malate dehydrogenase) (Escherichia coli K-12; D86S/G179D/I12V/M85Q/R81A)",Km,O=C(O)C(=O)CCO; NADH,1840 µM
same,Vmax,O=C(O)C(=O)CCO; NADH,138 µmol/min/mg
same,kcat,O=C(O)C(=O)CCO; NADH,74.9 ± 5.63 s⁻¹
same,kcat/Km,O=C(O)C(=O)CCO; NADH,44900 ± 15200 M⁻¹ s⁻¹
same,Km,[3]; [5],40 µM
same,Vmax,[3]; [5],67.7 µmol/min/mg
same,kcat,[3]; [5],36.5 ± 1.68 s⁻¹
same,kcat/Km,[3]; [5],1.03e+06 ± 67500 M⁻¹ s⁻¹
same,Km,[4]; [6],320 µM
same,Vmax,[4]; [6],5.56 µmol/min/mg
same,kcat,[4]; [6],2.99 ± 0.35 s⁻¹
same,kcat/Km,[4]; [6],9500 ± 50 M⁻¹ s⁻¹
"Ec.Mdh^7Q (OHB reductase, engineered E. coli malate dehydrogenase) (Escherichia coli K-12; D34G/D86S/G179D/I12V/I35R/M85Q/R81A)",Km,O=C(O)C(=O)CCO; [7],1080 µM
same,Vmax,O=C(O)C(=O)CCO; [7],155 µmol/min/mg
same,kcat,O=C(O)C(=O)CCO; [7],83.4 ± 3.4 s⁻¹
same,kcat/Km,O=C(O)C(=O)CCO; [7],80300 ± 17300 M⁻¹ s⁻¹
same,Km,[3],270 µM
same,Vmax,[3],20 µmol/min/mg
same,kcat,[3],10.8 ± 1.07 s⁻¹
same,kcat/Km,[3],40400 ± 1710 M⁻¹ s⁻¹
same,Km,[4]; [8],100 µM
same,Vmax,[4]; [8],119 µmol/min/mg
same,kcat,[4]; [8],64 ± 9.97 s⁻¹
same,kcat/Km,[4]; [8],645000 ± 76200 M⁻¹ s⁻¹
